# Reference: patent publication US20100233154A1, “TARGETED BINDING AGENTS DIRECTED TO HEPARANASE AND USES THEREOF 463” (MedImmune Limited, priority 2008, published 2010)
# T1: recombinant human heparanase (Homo sapiens, UniProt Q9Y251)
# T1 construct: Heparanase 8 and 50 kDa sub-units were cloned into pacGP67 as Sma 1-EcoR1 fragments; made in house; host or cells: Hi5 insect cells, baculovirus (pFastBac Dual)
# T1 sequence (Q9Y251 158-543 limits assumed): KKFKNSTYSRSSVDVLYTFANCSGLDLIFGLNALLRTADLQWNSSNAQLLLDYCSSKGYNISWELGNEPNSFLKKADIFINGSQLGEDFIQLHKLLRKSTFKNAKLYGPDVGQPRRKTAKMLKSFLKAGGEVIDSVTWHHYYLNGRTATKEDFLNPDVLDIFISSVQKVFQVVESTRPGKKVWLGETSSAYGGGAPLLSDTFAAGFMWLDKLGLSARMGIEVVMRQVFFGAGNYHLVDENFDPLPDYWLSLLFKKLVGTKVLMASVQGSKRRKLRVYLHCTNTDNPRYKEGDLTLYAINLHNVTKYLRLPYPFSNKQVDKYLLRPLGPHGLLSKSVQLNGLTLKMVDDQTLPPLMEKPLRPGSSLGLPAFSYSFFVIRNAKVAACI
# T1 sequence (Q9Y251 36-109 limits assumed): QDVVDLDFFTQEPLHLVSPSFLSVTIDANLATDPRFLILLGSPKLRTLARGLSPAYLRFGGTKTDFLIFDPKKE
# T2: recombinant heparanase captured with rabbit anti-heparanase antibody (Homo sapiens, UniProt Q9Y251)
# T2 construct: Heparanase 8 and 50 kDa sub-units were cloned into pacGP67 as Sma 1-EcoR1 fragments; made in house; host or cells: Hi5 insect cells, baculovirus (pFastBac Dual)
# T2 sequence (Q9Y251 158-543 limits assumed): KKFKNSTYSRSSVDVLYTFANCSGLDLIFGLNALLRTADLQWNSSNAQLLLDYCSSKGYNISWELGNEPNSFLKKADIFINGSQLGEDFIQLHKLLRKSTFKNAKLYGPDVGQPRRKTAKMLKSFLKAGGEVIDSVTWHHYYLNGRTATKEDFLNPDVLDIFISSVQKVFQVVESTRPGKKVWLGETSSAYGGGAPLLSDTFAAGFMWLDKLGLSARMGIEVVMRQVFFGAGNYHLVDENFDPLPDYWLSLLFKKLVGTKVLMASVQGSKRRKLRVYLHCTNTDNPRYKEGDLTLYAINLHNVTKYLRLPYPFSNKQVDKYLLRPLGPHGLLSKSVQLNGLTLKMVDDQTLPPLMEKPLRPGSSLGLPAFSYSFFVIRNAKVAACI
# T2 sequence (Q9Y251 36-109 limits assumed): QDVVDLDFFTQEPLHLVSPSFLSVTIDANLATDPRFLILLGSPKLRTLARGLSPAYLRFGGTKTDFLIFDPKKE
# T3: human heparanase (Homo sapiens, UniProt Q9Y251)
# T3 sequence (Q9Y251 36-543): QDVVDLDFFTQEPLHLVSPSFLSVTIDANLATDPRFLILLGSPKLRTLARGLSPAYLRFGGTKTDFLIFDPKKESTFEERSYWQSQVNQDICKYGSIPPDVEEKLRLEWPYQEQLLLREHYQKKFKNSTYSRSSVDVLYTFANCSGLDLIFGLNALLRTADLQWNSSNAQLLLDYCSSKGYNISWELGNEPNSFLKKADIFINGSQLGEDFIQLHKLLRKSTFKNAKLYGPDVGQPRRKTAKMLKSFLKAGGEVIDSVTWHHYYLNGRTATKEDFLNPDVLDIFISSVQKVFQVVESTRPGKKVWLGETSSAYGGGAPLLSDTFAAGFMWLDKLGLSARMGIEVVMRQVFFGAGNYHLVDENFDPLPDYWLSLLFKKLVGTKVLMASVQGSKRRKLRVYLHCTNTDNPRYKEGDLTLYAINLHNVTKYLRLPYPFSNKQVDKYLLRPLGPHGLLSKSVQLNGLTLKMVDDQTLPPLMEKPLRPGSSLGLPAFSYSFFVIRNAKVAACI
# T4: murine heparanase (Mus musculus, UniProt Q6YGZ1)
# T4 construct: made in house; host or cells: Hek293 cells (conditioned medium), inferred for the ELISA
# T4 sequence (Q6YGZ1 28-535): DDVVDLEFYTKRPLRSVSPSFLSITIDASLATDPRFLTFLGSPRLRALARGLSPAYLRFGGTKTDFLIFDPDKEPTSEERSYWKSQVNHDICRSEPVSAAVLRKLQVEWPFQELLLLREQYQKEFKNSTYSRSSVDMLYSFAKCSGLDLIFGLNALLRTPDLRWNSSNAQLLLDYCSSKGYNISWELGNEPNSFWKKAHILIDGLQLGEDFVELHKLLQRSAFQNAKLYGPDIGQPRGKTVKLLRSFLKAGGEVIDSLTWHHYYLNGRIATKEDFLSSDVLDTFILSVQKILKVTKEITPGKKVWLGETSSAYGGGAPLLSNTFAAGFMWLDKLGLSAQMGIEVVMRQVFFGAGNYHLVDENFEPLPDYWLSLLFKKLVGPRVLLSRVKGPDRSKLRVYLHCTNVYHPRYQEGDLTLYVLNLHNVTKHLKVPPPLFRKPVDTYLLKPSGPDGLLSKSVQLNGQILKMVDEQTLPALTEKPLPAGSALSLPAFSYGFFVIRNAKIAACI
# T5: Recombinant Hpa1 (Homo sapiens, UniProt Q9Y251)
# T5 construct: Heparanase 8 and 50 kDa sub-units were cloned into pacGP67 as Sma 1-EcoR1 fragments; made in house; host or cells: Hi5 insect cells, baculovirus (pFastBac Dual)
# T5 sequence (Q9Y251 158-543 limits assumed): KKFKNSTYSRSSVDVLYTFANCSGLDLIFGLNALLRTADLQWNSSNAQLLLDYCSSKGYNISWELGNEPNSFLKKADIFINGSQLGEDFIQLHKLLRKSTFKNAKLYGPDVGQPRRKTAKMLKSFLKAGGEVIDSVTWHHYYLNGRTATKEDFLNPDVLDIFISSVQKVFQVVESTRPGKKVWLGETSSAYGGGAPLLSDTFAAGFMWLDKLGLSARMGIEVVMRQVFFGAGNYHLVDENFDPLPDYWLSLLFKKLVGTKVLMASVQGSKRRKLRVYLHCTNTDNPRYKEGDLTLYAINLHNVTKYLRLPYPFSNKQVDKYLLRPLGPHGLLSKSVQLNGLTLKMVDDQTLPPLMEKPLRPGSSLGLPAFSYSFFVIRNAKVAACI
# T5 sequence (Q9Y251 36-109 limits assumed): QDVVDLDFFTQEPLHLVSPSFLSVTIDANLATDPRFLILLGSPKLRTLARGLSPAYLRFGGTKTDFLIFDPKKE
# Columns and labels:
# [1] = target: T1, recombinant human heparanase; experiment: ELISA binding to directly coated recombinant human heparanase
# Protocol: (§1) Titres of antibodies from Campaigns 1 and 2 were determined in an ELISA. Costar 3368 medium binding plates were coated directly with recombinant human heparanase or plates were coated with Rabbit anti-heparanase antibody (Raybiotech, Cat. IP-14-155) to capture recombinant heparanase. Directly coated heparanase was detected in three separate plates by mouse (InSight Cat. INS-26-1-0000), goat (Santa Cruz, Cat. sc26136) or rabbit (Raybiotech, Cat. IP-14-155) anti-heparanase antibodies, and quantified using appropriate secondary antibodies. Antibody captured heparanase was detected using mouse anti-heparanase (Insight Cat. INS-26-1-0000). At the end of the immunisation program, fusions were performed using mouse myeloma cells and lymphocytes isolated from the spleens and lymph nodes of the immunised mice by means of electroporation, as described in Example 2.
# (§2) Initial screening to detect antibodies binding to human heparanase in both direct coating and antibody capture ELISAs as described above identified 800 hybridomas for further testing; 535 IgG2 from Campaign 1 and 2 and 265 IgG4 from Campaign 2. Enzyme inhibition assays and cross species binding to cynomolgus and murine heparanase, in an antibody capture ELISA, identifed 12 antibodies that were taken forward for sub-cloning to provide purified antibodies for further analysis. Subsequently, confirmation of activity against human heparanase (FIGS. 3 and 4) and inhibition of recombinant cynomolgus and murine heparanase activity in the HS-cryptate degradation assay (FIG. 5a-c), together with sequence analysis, identified 8 antibodies that are described in the table below.
# [2] = target: T2, recombinant heparanase captured with rabbit anti-heparanase antibody; experiment: ELISA binding to antibody-captured heparanase; settings: antibody capture
# Protocol: as §1, §2
# [3] = target: T3, human heparanase; experiment: Cross species capture ELISA, human heparanase; assay type: binding
# Protocol: (§3) Initially, cross species binding to human, murine and cynomolgus heparanase was determined in an ELISA assay in which heparanase was captured onto plates using a rabbit anti-heparanase antibody (Raybiotech, Cat. IP-14-155). Exhaustive supernatants were added to the plates at a final dilution of 1:5 and bound antibody detected with a rabbit anti-human IgG Fc.
# [4] = tested on: cynomolgus heparanase; experiment: Cross species capture ELISA, cynomolgus heparanase; assay type: binding; settings: min 0.06, max 1.5 OD units
# Protocol: as §3
# [5] = target: T4, murine heparanase; experiment: Cross species capture ELISA, murine heparanase; assay type: binding; settings: min 0.06, max 0.9 OD units
# Protocol: as §3
# [6] = target: T5, Recombinant Hpa1; experiment: Medium resolution Biacore affinity; assay type: binding; settings: purified antibody captured on CM4 chip; Hpa1 1 nM and 10 nM; 25° C.
# Protocol: For medium resolution Biacore™ tests, cloned and purified antibodies were used. Each of three purified antibodies (10E9.1, 15A1.2, and 15A11.1) were captured onto a high-density goat anti-human antibody surface over a CM4 Biacore™ chip. Recombinant Hpa1 was diluted to the desired concentration (1 nM and 10 nM) in 10 mM HEPES, 150 mM NaCl, 0.005% tween-20, 0.1 mg per ml BSA pH7.4 (25° C.) immediately prior to injection. Data were fit globally to a 1:1 interaction model with a term for mass transport included. The resulting KD values are summarised below in Table 4.
# [7] = tested on: MDA MB231-Hpa1#4 cells; experiment: Heparanase expression in cells cultured with antibody (Western blot); assay type: cell-based, human; settings: 25 μg per ml antibody, 72 hrs, compared to untreated or IgG2 control
# Protocol: MDA MB231-Hpa1#4 cells were cultured in the presence of 25 μg per ml anti-human heparanase antibody or control IgG2 antibody (Sigma Cat. No. 1504-1MG) for 72 hrs. Following the removal of culture medium, protein extracts were prepared from the cells in 100 μl RIPA buffer and separated on […] gels and transferred to nitrocellulose as described above. Western blots were probed with an anti-heparanase antibody that detected only pro-heparanase (SantaCruz Cat. No. SC25825).
# [8] = tested on: MCF7-Hpa1#19 xenograft; experiment: Subcutaneous xenograft tumour growth, MCF7-Hpa1#19; assay type: in vivo, SCID mice; settings: once weekly i.p.; 10E9.1 at 7.5 or 15 mg per kg
# Protocol: (§4) MCF7-Hpa1#19 and HCT116 tumour cells were harvested from sub-confluent cultures. A total of 5×10^6 (MCF7-Hpa1#19) or 10^7 (HCT116) tumour cells were inoculated subcutaneously into the flank of male SCID mice. HCT116 tumour cells were implanted in PBS; […] cells were implanted in PBS containing 50% matrigel.
# (§5) When tumours had attained ˜200 mm^3, tumour bearing mice were randomised into treatment groups and dosed with the following; PBS; an isotype matched control IgG2 antibody, 15 mg per kg; anti-heparanase antibody 10E9.1, 7.5 or 15 mg per kg. All treatments were administered once weekly i.p. Tumour growth was measured twice per week using calipers and tumour volumes calculated according to an ellipsoid volume is formula (3.142/6×length×width×width) from measures of the largest tumour diameter and two opposing widths (FIG. 11).
# [9] = tested on: HCT116 xenograft; experiment: Subcutaneous xenograft tumour growth, HCT116; assay type: in vivo, SCID mice; settings: once weekly i.p.; 10E9.1 at 15 mg per kg
# Protocol: as §4, §5
molecule,measurement,setting,value
"15A11.1: fully human anti-heparanase monoclonal antibody, G2κ; VH SEQ ID NO 10, VL SEQ ID NO 12; ATCC PTA-9490 (antibody, listed as Homo Sapiens, V domains shown, fully human anti-heparanase monoclonal antibody, G2κ; ATCC PTA-9490) VH: QVQLVQSGAEVKKPGASVKVSCKVSGDTLTELSMHWVRQTPGKGLEWMGGFDPEDGETIYAQKFQGRVTMTGDTSTDTAYMELSSLRSEDTAVYYCATEGDYGDSEEYYYYYGMDVWGQGTTVTVSS VL: DIQMTQSPSSLSASVGDRVTITCRASQGISNYLAWYQQKPGKVPKLLIYAASTLQSGVPSRFSGSGSGTDFTLTISSLQPEDVATYYCQKYNRAPFTFGPGTKVDIK",Binding to direct coated heparanase,[1],0.07 OD units
same,Binding to captured heparanase,[2],0.5 OD units
same,Binding to heparanase Human,[3],0.21 OD units
same,Binding to heparanase Cyno,[4],0.14 OD units
same,Binding to heparanase Mouse,[5],0.17 OD units
same,ka,[6],3.6e+06 M⁻¹ s⁻¹
same,kd,[6],0.000309 s⁻¹
same,Inhibition of heparanase expression,[7],significant inhibition of heparanase expression
same,Tumour growth inhibition,[8],not inhibited
same,Tumour growth inhibition,[9],not inhibited
